Experimental data taken from patent US20090186043A1 (BEN GURION UNIVERSITY OF THE NEGEV RESEARCH AND DEVELOPMENT …, published 2009).

Molecular target: T1, Recombinant Fructose Bisphosphate Aldolase (rFBA), FBA-HAT fusion protein, 33.5 kDa (Streptococcus pneumoniae TIGR4, UniProt P0A4S1 1-293)
T1 construct: Expressed in E. coli BL21(DE3)pLysS and purified on Ni-NTA in 8 M urea; also called rFBA-HAT fusion protein; recombinant FBA; not shown: HAT (histidine) tag from the pHAT expression vector
T1 sequence (looked up): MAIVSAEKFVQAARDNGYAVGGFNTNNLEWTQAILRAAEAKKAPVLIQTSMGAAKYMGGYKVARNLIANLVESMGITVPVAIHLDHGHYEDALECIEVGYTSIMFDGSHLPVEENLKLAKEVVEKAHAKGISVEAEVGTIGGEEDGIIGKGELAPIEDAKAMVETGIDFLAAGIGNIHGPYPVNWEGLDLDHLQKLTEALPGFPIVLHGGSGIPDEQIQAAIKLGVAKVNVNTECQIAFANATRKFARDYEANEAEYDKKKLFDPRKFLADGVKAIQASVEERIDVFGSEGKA
Assay: Western blot like overlay: rFBA on nitrocellulose probed with FCRP, rabbit anti-FCRP-KLH serum and anti-rabbit IgG

B1: Flamingo Cadherin receptor derived synthetic peptide (FCRP), 15 amino acids (peptide)
peptide: H-ADSDSDSDLSLEEER-OH
notes: Derived from human Flamingo homolog 1 (Q9NYQ7); also called FC peptide; FC derived synthetic peptide
B1: binds.
